Data published in patent US20250115641A1 (H LEE MOFFITT CANCER CENTER AND RESEARCH INSTITUTE, published 2025).
Bridge positions count the residues as written; N and C are the ends. Square brackets hold non-standard residues; d marks the D form. Primed or numbered codes have the meaning given here. S5 = C=CCCC[C@](C)(N)C(=O)O; Nle = CCCC[C@H](N)C(=O)O; FITC′ = fluorescein; βAla = NCCC(=O)O

Columns and labels:
[1] = target: T1, human NLRP3^PYD (residues 3-110, C-terminal 6 x histidine) (human, UniProt Q96P20 3-110); assay: fluorescence polarization binding assay, FITC-labelled peptide
T1 construct: range 3-110; also called His6-NLRP3^PYD
T1 sequence (Q96P20 other isoform, or with tags, fused parts or gaps limits assumed): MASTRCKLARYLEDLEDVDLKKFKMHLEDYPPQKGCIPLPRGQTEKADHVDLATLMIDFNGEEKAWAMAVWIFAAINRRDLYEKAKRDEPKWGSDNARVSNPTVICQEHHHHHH

[2] = target: T2, human N-terminally GST tagged ASC^PYD (human, UniProt Q9ULZ3 1-106); assay: as above
T2 construct: range 1-106; Expressed in E. coli from pGEX-4T1; also called GST-ASC^PYD; not shown: N-terminal GST (glutathione S-transferase) tag of the pGEX-4T1 vector
T2 sequence (Q9ULZ3 1-106): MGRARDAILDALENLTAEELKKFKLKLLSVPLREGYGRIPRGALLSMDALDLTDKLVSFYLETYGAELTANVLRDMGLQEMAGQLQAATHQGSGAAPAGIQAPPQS

{FITC′}-[βAla]EELKKFK[Nle]KLGTV-NH2 (also called peptide 55) [fPOP1-H2]: binds [1].

B1: fSAH-POP1-4 (peptide)
peptide: AEXLKKXKXKLGTV
modifications: N-terminal fluorescein (FITC) on β-alanine; S5 = (S)-2-(4-pentenyl)alanine residues covalently linked (hydrocarbon staple); made on Rink amide resin
notes: FITC-labelled stapled peptide; also called peptide 54
B1: binds [1].

B2: fSAH-POP1-5 (peptide)
peptide: AQXLKKXKXKLGTA
modifications: N-terminal fluorescein (FITC) on β-alanine; S5 = (S)-2-(4-pentenyl)alanine residues covalently linked (hydrocarbon staple); made on Rink amide resin
notes: also called peptide 56
B2 was tested, and the “fold change of KD against fSAH-POP1-4 (higher)” value [1] was 1.5 fold.

B3: fSAH-POP1-6 (peptide)
peptide: XQXLKKXKXKLWTA
modifications: N-terminal fluorescein (FITC) on β-alanine; S5 = (S)-2-(4-pentenyl)alanine residues covalently linked (hydrocarbon staple); made on Rink amide resin
notes: also called peptide 57
B3 was tested, and the “fold change of KD against fSAH-POP1-5 (lower)” value [1] was 2 fold.

For {FITC′}-[βAla]Q[S5]LRK[S5]QWKLWTA-NH2 (staple 3-7, also called peptide 63) [fSAH-POP1-12], the “fold increase of binding affinity against fSAH-POP1-10” value [1] was 10 fold.

{FITC′}-[βAla]Q[S5]LRR[S5]QWKLWTS-NH2 (staple 3-7, also called peptide 67) [fSAH-POP1-16]: binds [2].
